# Positions count from the first letter of the chain named.
# T1: human p55 TNF receptor (human, UniProt P19438 30-211, limits assumed)
# T1 construct: Coupled to a CM5 chip or coated on immunotubes/plates; also called TNF receptor 1; TNFα receptor
# T1 sequence (looked up): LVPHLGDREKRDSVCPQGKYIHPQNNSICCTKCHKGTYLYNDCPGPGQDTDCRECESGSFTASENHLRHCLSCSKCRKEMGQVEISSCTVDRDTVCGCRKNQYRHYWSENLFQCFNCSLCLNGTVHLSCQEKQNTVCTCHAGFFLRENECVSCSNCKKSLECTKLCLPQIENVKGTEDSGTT
# B1: dAb3 monomer (other)
# VL: DIQMTQSPSSLSASVGDRVTITCRASQSVKEFLWWYQQKPGKAPKLLIYMASNLQSGVPSRFSGSGSGTDFTLTISSLQPEDFATYYCQQKFKLPRTFGQGTKVEIKR
# notes: Vκ dAb monomer; also called partner dAb in TAR1-5d4
# B2: TAR1-5-19 monomer (other)
# VL: DIQMTQSPSSLSASVGDRVTITCRASQSIDSYLHWYQQKPGKAPKLLIYSASELQSGVPSRFSGSGSGTDFTLTISSLQPEDFATYYCQQVVWRPFTFGQGTKVEIKR
# notes: also called TAR1-5-19 dAb
# B3: dAb1 monomer (other)
# VL: B2 VL with D30Y, S31D, Y32A, H34E, S50T, E53R, V92M, W93Q, F96V
# notes: Vκ dAb monomer; also called partner dAb in TAR1-5d1, d5, d6
# B4: TAR2h-5 (other)
# VH: EVQLLESGGGLVQPGGSLRLSCAASGFTFDLYNMFWVRQAPGKGLEWVSFISQTGRLTWYADSVKGRFTISRDNSKNTLYLQMNSLRAEDTAVYYCAKTLEDFDYWGQGTLVTVSS
# notes: VH dAb against TNF receptor 1; also called TAR2-5; TAR2h-5 VH dAb
# B5: TAR1-5-19d4 (other)
# chain: DIQMTQSPSSLSASVGDRVTITCRASQSIDSYLHWYQQKPGKAPKLLIYSASELQSGVPSRFSGSGSGTDFTLTISSLQPEDFATYYCQQVVWRPFTFGQGTKVEIKRGGGGSGGGGSGGGGSGGGGSGGGGSDIQMTQSPSSLSASVGDRVTITCRASQSVKEFLWWYQQKPGKAPKLLIYMASNLQSGVPSRFSGSGSGTDFTLTISSLQPEDFATYYCQQKFKLPRTFGQGTKVEIKR
# notes: also called TAR1-5-19 dimer 4
# B6: HEL4 (other)
# VH: EVQLLESGGGLVQPGGSLRLSCAASGFRISDEDMGWVRQAPGKGLEWVSSIYGPSGSTYYADSVKGRFTISRDNSKNTLYLQMNSLRAEDTAVYYCASALEPLSEPLGFWGQGTLVTVSS
# notes: VH dAb; also called HEL4 VH dAb; anti-hen egg white lysozyme dAb
# B7: TAR1-5-19CYS trimer (TMEA) (other)
# VL: DIQMTQSPSSLSASVGDRVTITCRASQSIDSYLHWYQQKPGKAPKLLIYSASELQSGVPSRFSGSGSGTDFTLTISSLQPEDFATYYCQQVVWRPFTFGQGTKVEIKRC
# modifications: C-terminal Cys coupled to TMEA (Tris[2-maleimidoethyl]amine)
# notes: also called TAR1-5-19 homotrimer; trimeric TAR1-5-19CYS
# What was measured:
# [1] = target: bovine serum albumin (BSA) (bovine, UniProt P02769 25-607); assay: antigen ELISA
# Sequence of bovine serum albumin (BSA) (P02769 25-607 limits assumed): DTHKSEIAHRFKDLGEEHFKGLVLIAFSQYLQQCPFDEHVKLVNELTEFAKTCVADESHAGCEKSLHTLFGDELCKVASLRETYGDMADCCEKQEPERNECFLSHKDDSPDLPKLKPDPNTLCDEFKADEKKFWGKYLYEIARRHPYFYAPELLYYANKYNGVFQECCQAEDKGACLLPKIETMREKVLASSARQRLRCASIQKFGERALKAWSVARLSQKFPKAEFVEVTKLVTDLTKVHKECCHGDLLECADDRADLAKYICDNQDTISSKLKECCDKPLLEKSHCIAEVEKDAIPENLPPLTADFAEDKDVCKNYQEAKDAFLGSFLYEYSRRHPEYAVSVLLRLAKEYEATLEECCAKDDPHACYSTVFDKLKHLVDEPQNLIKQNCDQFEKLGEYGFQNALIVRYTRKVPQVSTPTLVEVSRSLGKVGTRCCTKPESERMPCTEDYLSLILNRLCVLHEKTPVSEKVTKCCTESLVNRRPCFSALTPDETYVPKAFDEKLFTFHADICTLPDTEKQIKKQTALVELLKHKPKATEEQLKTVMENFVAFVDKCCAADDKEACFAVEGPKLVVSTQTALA
# Experimental: (§1) Binding activity of dimeric recombinant proteins was compared to monomer by Protein A/L ELISA or by antigen ELISA. Briefly, a 96 well plate is coated with antigen or Protein A/L overnight at 4° C. The plate washed with 0.05% Tween-PBS, blocked for 2 hrs with 2% Tween-PBS. The sample is added to the plate incubated for 1 hr at room temperature. The plate is washed and incubated with the secondary reagent for 1 hr at room temperature. The plate is washed and developed with TMB substrate. Protein A/L-HRP or India-HRP was used as a secondary reagent.
# human TNFα [2] = target: T2, human TNFα (human, UniProt P01375 77-233); assay: TNF receptor assay: inhibition of TNF binding to TNFR1-Fc (ELISA)
# T2 construct: Coated on plates, coupled to a CM5 chip, or added in solution (10 ng/ml) in the TNF receptor assay; the assay paragraphs often print only 'TNF'; also called TNF alpha; TAR1
# T2 sequence (P01375 77-233 limits assumed): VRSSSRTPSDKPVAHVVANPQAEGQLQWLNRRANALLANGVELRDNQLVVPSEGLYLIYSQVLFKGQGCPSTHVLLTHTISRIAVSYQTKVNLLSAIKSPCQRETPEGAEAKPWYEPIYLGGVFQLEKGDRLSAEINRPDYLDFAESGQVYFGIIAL
# human TNFα [3] = target: T2, human TNFα; assay: not stated; printed under 'Equilibrium dissocation constant (Kd = Koff/Kon)' in the data summary
# human TNFα [4] = target: T2, human TNFα; assay: antigen ELISA
# Experimental: as §1
# human p55 TNF receptor = target: T1, human p55 TNF receptor; assay: selection from dAb libraries
# hen egg lysozyme (HEL) [5] = target: T3, hen egg lysozyme (HEL) (hen, UniProt P00698 19-147); assay: ELISA on HEL coated at 3 mg/ml, detection with 9e10 (anti-myc) and anti mouse IgG-HRP
# T3 construct: also called hen egg white lysozyme
# T3 sequence (P00698 19-147): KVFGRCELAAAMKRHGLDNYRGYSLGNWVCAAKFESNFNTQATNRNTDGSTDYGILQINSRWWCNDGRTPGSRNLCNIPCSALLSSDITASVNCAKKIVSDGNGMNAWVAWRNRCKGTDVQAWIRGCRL
# human TNFα [6] = target: T2, human TNFα; assay: TNF receptor assay: inhibition of TNF binding to TNFR1-Fc (ELISA); remark: listed apart in the source
# human TNFα [7] = target: T2, human TNFα; assay: TNF receptor assay; fermenter-expressed, cation exchange FPLC pure dimer
# hen egg lysozyme (HEL) [8] = target: T3, hen egg lysozyme (HEL); assay: selection from dAb libraries
# human TNFα [9] = target: T2, human TNFα; assay: TNF receptor assay: inhibition of TNF binding to TNFR1-Fc (ELISA); remark: listed apart in the source
binder,measurement,setting,value
B1,binding result,[1],no binding
B2,IC50,human TNFα [2],30 nM
same,Kd,human TNFα [3],30 nM
B3,binding result,[1],no binding
same,binding result,human TNFα [4],binds
B4,binding result,human p55 TNF receptor,binds
same,ELISA signal (background),hen egg lysozyme (HEL) [5],0.069
B5,IC50,human TNFα [6],2 to 5 nM
same,IC50,human TNFα [7],8 nM
B6,binding result,hen egg lysozyme (HEL) [8],binds
B7,IC50,human TNFα [9],0.3 nM

# From patent US20110223168A1 (published 2011)
